Experimental data published in IntAct's records for PubMed 17196169.

B1: Programmed cell death protein 6 (Homo sapiens), O75340 (parent)
chain: MAAYSYRPGPGAGPGPAAGAALPDQSFLWNVFQRVDKDRSGVISDTELQQALSNGTWTPFNPVTVRSIISMFDRENKAGVNFSEFTGVWKYITDWQNVFRTYDRDNSGMIDKNELKQALSGFGYRLSDQFHDILIRKFDRQGRGQIAFDDFIQGCIVLQRLTDIFRRYDTDQDGWIQVSYEQYLSMVFSIV
partner: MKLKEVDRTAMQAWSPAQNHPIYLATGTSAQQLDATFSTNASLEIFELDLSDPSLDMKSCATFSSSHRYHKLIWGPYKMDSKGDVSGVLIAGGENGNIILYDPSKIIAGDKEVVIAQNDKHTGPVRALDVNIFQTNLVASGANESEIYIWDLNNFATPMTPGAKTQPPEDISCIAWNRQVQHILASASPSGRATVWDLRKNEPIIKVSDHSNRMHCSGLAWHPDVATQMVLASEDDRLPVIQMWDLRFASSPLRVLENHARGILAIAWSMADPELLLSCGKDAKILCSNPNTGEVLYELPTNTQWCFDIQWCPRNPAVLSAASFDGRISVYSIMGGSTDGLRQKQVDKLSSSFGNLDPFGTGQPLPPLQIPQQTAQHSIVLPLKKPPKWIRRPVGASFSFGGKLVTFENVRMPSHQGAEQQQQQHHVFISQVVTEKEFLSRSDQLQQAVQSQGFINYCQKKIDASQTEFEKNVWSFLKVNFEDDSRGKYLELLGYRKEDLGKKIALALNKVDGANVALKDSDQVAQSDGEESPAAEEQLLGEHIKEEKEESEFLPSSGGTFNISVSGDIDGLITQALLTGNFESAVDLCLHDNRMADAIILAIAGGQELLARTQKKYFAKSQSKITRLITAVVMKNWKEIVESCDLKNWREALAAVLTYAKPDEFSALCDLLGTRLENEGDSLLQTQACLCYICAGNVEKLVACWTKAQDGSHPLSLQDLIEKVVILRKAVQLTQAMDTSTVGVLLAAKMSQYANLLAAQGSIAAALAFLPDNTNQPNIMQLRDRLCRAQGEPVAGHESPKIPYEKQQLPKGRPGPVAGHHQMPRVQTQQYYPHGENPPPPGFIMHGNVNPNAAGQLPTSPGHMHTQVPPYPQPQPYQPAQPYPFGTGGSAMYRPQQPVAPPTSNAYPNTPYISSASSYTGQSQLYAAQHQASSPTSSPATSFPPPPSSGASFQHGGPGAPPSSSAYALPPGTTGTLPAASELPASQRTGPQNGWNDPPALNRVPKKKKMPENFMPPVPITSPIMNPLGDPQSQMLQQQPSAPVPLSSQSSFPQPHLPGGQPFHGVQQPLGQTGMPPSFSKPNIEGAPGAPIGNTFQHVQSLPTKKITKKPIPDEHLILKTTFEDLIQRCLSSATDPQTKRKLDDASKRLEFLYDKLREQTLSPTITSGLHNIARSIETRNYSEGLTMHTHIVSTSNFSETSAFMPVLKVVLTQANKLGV

Variants of: B1
Conditions: with sc31a_human SEC31A

Row | Variant | effect of a mutation on the interaction
1 | E47A;E114A | decreasing interaction
